In US20040092712A1 (published 2004):

T1: sCD14(1-307)S286C (human, UniProt P08571 20-326)
T1 construct: CD14 mutant polypeptide expressed in COS-1 cells; also called CD14(s286C)
T1 sequence: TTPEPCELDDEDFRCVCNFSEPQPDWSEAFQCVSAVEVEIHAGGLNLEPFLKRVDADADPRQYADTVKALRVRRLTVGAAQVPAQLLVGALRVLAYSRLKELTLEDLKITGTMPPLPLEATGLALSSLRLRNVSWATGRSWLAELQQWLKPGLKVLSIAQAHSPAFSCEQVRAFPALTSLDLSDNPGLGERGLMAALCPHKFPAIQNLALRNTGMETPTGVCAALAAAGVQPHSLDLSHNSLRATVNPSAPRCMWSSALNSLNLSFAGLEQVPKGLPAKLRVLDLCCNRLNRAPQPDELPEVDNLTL

B1: rabbit soluble type CD14 (rabbit serum) (receptor, rabbit (New Zealand white), UniProt Q28680 18-342, looked up)
chain: STDTPEPCELDDDDIRCVCNFSDPQPDWSSALQCMPAVQVEMWGGGHSLEQFLRQADLYTDQRRYADVVKALRVRRLTVGAVQVPAPLLLGVLRVLGYSRLKELALEDIEVTGTAPPPPPLEATGPALSTLSLRNVSWPKGGAWLSELQQWLKPGLQVLNIAQAHTLAFSCEQVRTFSALTTLDLSENPGLGERGLVAALCPHKFPALQDLALRNAGMKTLQGVCAALAEAGVQPHHLDLSHNSLRADTQRCIWPSALNSLNLSFTGLQQVPKGLPAKLNVLDLSCNKLNRAPQPGELPKVVNLSLDGNPFLVPGASKLQEDLTN
B2: rhesus monkey soluble type CD14 (serum) (receptor)
chain: TTPEPCELDDEDFRCVCNFSEPHPDWSEAFQCVSAVEVEIRVGGLSLEPFLTRVDPDADPRQYADTIKALRVRRLTVGAAQVPAQLLVGALRVLAYSRLQELTLEDLEITGTMPPLPLEATGLALSSLRLHNVSWATGRSWLAELQQWLKPGLKVLSIAQAHSPAFSCEQVRAFPALTSLDLSDNPGLGERGLIAALCPHKFPALQNLALRNTGMETPTGVCAALAAAGVQPHSLDLSHNSLRATANPSAPRCMWSSALNSLNLSFAGLEQVPKGLPAKLRVLDLSCNRLNRRPRPDELPQVDNLALDGNPFLVPGTALPQEGSMN
B3: crab-eating macaque soluble type CD14 (serum) (receptor)
chain: TTPEPCELDDEDFRCVCNFSEPHPDWSEAFQCVSAVEVEIRVGGLSLEPFLTRVDPDADPRQYADTIKALRVRRLTVGAAQVPAQLLVGALRVLAYSRLQELTLEDLEITGTMPPLPLEATGLALSSLRLHNVSWATGRSWLAELQQWLKPGLKVLSIAQAHSPAFSCEQVRAFPALTSLDLSDNPGLGERGLIAALCPHKFPALQNLALRNTGMETPTGVCAALAAAGVQPHSLDLSHNSLRATANPSAPRCMWSSALNSLNLSFAGLEQVPKGLPAKLRVLDLSCNRLNRRPRPDELPQVDNLALDGNPFLVPGTALPQEGSMN
B4: human serum-derived soluble type CD14 (receptor)
chain: TTPEPCELDDEDFRCVCNFSEPQPDWSEAFQCVSAVEVEIHAGGLNLEPFLKRVDADADPRQYADTVKALRVRRLTVGAAQVPAQLLVGALRVLAYSRLKELTLEDLKITGTMPPLPLEATGLALSSLRLRNVSWATGRSWLAELQQWLKPGLKVLSIAQAHSPAFSCEQVRAFPALTSLDLSDNPGLGERGLMAALCPHKFPAIQNLALRNTGMETPTGVCAALAAAGVQPHSLDLSHNSLRATVNPSAPRCMWSSALNSLNLSFAGLEQVPKGLPAKLRVLDLSCNRLNRAPQPDELPEVDNLTLDGNPFLVPGTALPHEGSMNSGVVPACARSTLSVGVSGTLVL
B5: sCD14(1-356) (receptor)
chain: TTPEPCELDDEDFRCVCNFSEPQPDWSEAFQCVSAVEVEIHAGGLNLEPFLKRVDADADPRQYADTVKALRVRRLTVGAAQVPAQLLVGALRVLAYSRLKELTLEDLKITGTMPPLPLEATGLALSSLRLRNVSWATGRSWLAELQQWLKPGLKVLSIAQAHSPAFSCEQVRAFPALTSLDLSDNPGLGERGLMAALCPHKFPAIQNLALRNTGMETPTGVCAALAAAGVQPHSLDLSHNSLRATVNPSAPRCMWSSALNSLNLSFAGLEQVPKGLPAKLRVLDLSCNRLNRAPQPDELPEVDNLTLDGNPFLVPGTALPHEGSMQSVVVPACARSTLSVGVSGTLVLLQGARGFA
notes: Expressed from pM1656 in COS-1 cells; GPI-anchoring sites Asn326 and Gly328 replaced by Gln and Val to give a soluble protein; In the BIACORE experiments it stood as a complex with LPS or FITC-LPS; also called full-length type human soluble CD14; recombinant soluble type CD14

What was measured:
F1024-1-3 antibody = test: competition ELISA: 4-fold diluted serum mixed with 1 µg/mL peroxidase-labeled F1024-1-3 on immobilised human sCD14(1-356)
sCD14(1-307)S286C = target: T1, sCD14(1-307)S286C; test: BIACORE 3000, injected over immobilised sCD14(1-356), no LPS

Row | Binder | inhibition ratio of binding of F1024-1-3 antibody to human CD14 (F1024-1-3 antibody) [%] | binding result (sCD14(1-307)S286C)
1 | B1 | 52 | 
2 | B2 | 44 | 
3 | B3 | 57 | 
4 | B4 | 83 | 
5 | B5 |  | no binding (tested: 10 µg/mL)
